Key:
[1] = target: trypsin-cleaved (truncated) recombinant murine cystatin C (mouse) (UniProt P21460); test: SEC; pH 4.0: 100 mM sodium acetate, 150 mM sodium chloride; 3 mg/mL protein kept at 4 °C overnight in the buffer; monomer to dimer ratio
[2] = target: trypsin-cleaved (truncated) recombinant murine cystatin C (mouse) (UniProt P21460); test: SEC; pH 5.0 and 5.5 (100 mM sodium acetate, 150 mM NaCl) and pH 5.5, 6.0, 7.0, 8.0 (100 mM sodium phosphate, 150 mM NaCl); 3 mg/mL protein kept at 4 °C overnight in the buffer; monomer to dimer ratio
[3] = target: recombinant murine cathepsin B, wild type, auto-activated (mouse)
[4] = target: the molecule itself; test: SEC; Superdex 75 Increase 10/300 GL; running buffer 100 mM sodium acetate, 5 mM calcium chloride, 100 mM NaCl, pH 5.5; separation of monomer and dimer fractions

Question: What does the source list for “trypsin-cleaved (truncated) recombinant murine cystatin C (from UniProt P21460 29-140) (domain or fragment)”?
Answer: percent present as dimer [1]: 100%; percent present as dimer [2]: 70%

B1: murine cystatin C dimer (dimer fraction isolated by size exclusion chromatography) (complex)
chain: ATPKQGPRMLGAPEEADANEEGVRRALDFAVSEYNKGSNDAYHSRAIQVVRARKQLVAGVNYFLDVEMGRTTCTKSQTNLTDCPFHDQPHLMRKALCSFQIYSVPWKGTHSLTKFSCKNA
Question: Which CTSB activity at pH 5.5 (Arg-Arg-AMC) with the CST3 dimer fraction [3] does the source give for B1 here?
Answer: 3 fold

B2: recombinant murine cystatin C (CST3), full-length (not trypsin-treated) (natural protein, mouse, UniProt P21460 21-140, looked up)
chain: B1 chain
notes: cystatin C, mouse, synthetic gene ordered without the signal peptide; The preparation is a mixture of monomer and dimer; the monomer fraction isolated by SEC is called mCST3; also called mCST3 (monomer fraction); CST3 monomers; source: E. coli SHuffle T7 Express, purified (Ni-IDA; monomer fraction by SEC); not shown: His-tag, N-terminal, kept; TEV protease cleavage site, N-terminal, kept
Question: With B2 as the molecule, how does the “stoichiometry N” value [4] read?
Answer: 2
